The series is described as follows: yeast display, Sf9 membrane polyspecificity reagent, FACS + sequencing; frameworks hold sequencing errors. The procedure, abridged:
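Genes from sorted yeast were amplified by colony PCR, read by MiSeq 2 × 250 sequencing and filtered on CDR length. These cells carried a synthetic nanobody library in Saccharomyces cerevisiae BJ5465 and were sorted by FACS into low and high (top ~1%) gates on anti-HA and streptavidin fluorescence. Polyreactivity is labelled according to the gate of origin.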
Take “QVQLVESGGGLVQAGSSLRLSSAASGSIIGVNAKGRYRQAAGKERELVAAISSTGGSTYYADSVKGRYTISRDNAKNTVFLKMNSLKPDDTAVYYCNTDYSKSIGDGYSGFDYWGQGTQLTVSS”: the “polyreactivity (PSR sort gate)” value is given as “low polyreactivity”.

Regarding “QVQLVESGGGLVQAGSTLRLSCAASGRIFDLYTMGWYRQAPGKERELVAAIRWSDGSTYYADSVKGRFTISRDYAKNTVYLQMNSLKPEDTAVYYCAADTRTSYYNDDYDYWGQGTQVTVSS”, the “polyreactivity (PSR sort gate)” value is recorded as “low polyreactivity”.

Regarding “QVQLVESGGGLVQAGVRLRLSCAASGIIFRTYAMGWYRRAPGKERELVADITWSDGSTYYADSVKGRFTISRDNAKNTVYLQMNSLKPEDTAVYYCNADVLSDDSWWSYDYWGQGTQVTVSS”, the “polyreactivity (PSR sort gate)” value is listed as “high polyreactivity”.

For “QVQLVESGGGLVQAGVRLRLSCADSGSTFYLNAIGWYRQAPGKERELVAAITRVGRTYYADSVKGRFTISRDNAKNTVYLQMNSLKPEDTAVYYCNALGHYKLWGLGTQVTVSS”, the “polyreactivity (PSR sort gate)” value is reported as “high polyreactivity”.

Turning to “QVQLVESGGGLVQAGVSHRLSCAASGRTFPGNAMGWYRQAPGKEREFVAAISYSGGRTYYADSVKGRFTISRDNAKNTVYLLMNSLKPEDTAVYYCAKRIVQPSVAAYYYWGLGTQVTVSS”, the “polyreactivity (PSR sort gate)” value was “high polyreactivity”.

In the case of “QVQLVESGGGLVQAGVSLRISCAASGFIFYYYAMGWYRQAPGKERELVAAISWSGGSTYYADSVKGRFTISRDNAKNTVYLQLNSLKPEDTSVYYCNARFRYARYSQRYDYWGQGTQVTVSS”, the “polyreactivity (PSR sort gate)” value was “high polyreactivity”.

In the case of “QVQLVESGGGLVQAGVSLRISCAASGSTFRGYVMGWYRPAPGKERELVAAISRSGTSTYYADSVKGRFTISRDNAKNTVYLQINSLKPEDTAVYYCAAQLYGHGEDYWGQGTQVTVSS”, the “polyreactivity (PSR sort gate)” value is “high polyreactivity”.

Turning to “QVQLVESGGGLVQAGVSLRLICAASGLTFQYNAMGWYRQAPGKEREMVASINSGGSTDYADSVKGRFTISRDNAKNTVYLQMNSLKPEDTAVYYCATSGYWYSASYGYEYWGQGTQVTVSS”, the “polyreactivity (PSR sort gate)” value was “low polyreactivity”.

Regarding “QVQLVESGGGLVQAGVSLRLSCAASGFIFYRYAMGWYRQAPRKERELVAAISWGGGSTTYYADSVKGRFTISRYNAKNTVYLQMNSLKPEDTAVYYCAKLRYPYLFWDDSEYWGQGTQVTVSS”, the “polyreactivity (PSR sort gate)” value is on record as “low polyreactivity”.

As for “QVQLVESGGGLVQAGVSLRLSCAASGFSFAKNAMAWYRQAPGKERELVADITYSGGSTYADSVKGRFTISLDNAKNTVYFQMNSLKPEDTAVYYCAADSRRRSCYDYWVQGTQVTVSS”, the “polyreactivity (PSR sort gate)” value was “low polyreactivity”.

In the case of “QVQLVESGGGLVQAGVSLRLSCAASGGTFSRNAMGWYRQAPGKERELVAAINSSGVSTSYADSVKGRFTISRDNAKNTVYLQMNSLKPEDTAVYYCAAETSSAEVDYWGQGTQVTVSS”, the “polyreactivity (PSR sort gate)” value is “low polyreactivity”.

With “QVQLVESGGGLVQAGVSLRLSCAASGIFRRYAMGWYIQAPGKERELVAAISSNGGSTYYADSVKGRFTISRDNAKNTVYLQMNSLKPEDTAVYYCNADVYVWNYYYWGQGTQVTVSS”, the “polyreactivity (PSR sort gate)” value is recorded as “high polyreactivity”.

“QVQLVESGGGLVQAGVSLRLSCAASGLIFVFYAMGWYRQAPGKERELVAAISRSGTSTYADSVKGRFTISRDNAKNTVYLQMNSLKPADTAVYYCNAYRYYSPYGYWGQGTQVTVSS”: the “polyreactivity (PSR sort gate)” value is listed as “low polyreactivity”.

For “QVQLVESGGGLVQAGVSLRLSCAASGRIFNGNAMGWYRQAPGIEWELVATITRGGGSTYYADSVKGRFTISRDNAKKTVYLQMNSLKPEDTAVYSCNVPPPTQVRYRSDHWGQGTQVTVSS”, the “polyreactivity (PSR sort gate)” value was “low polyreactivity”.

Turning to “QVQLVESGGGLVQAGVSLRLSCAASGRTFALNVMGWYRQAPGKERELVAAISRSGGSTYYAESVKGRFTISRDNAKNTVYLQMNSLKPEDTAVYYCAAATHYQSYNRRDYWGQGTQVTVSS”, the “polyreactivity (PSR sort gate)” value is “high polyreactivity”.

As to “QVQLVESGGGLVQAGVSLRLSCAASGRTFEYNAMGWYRQAPGKERELVATIRYSGTSTYADSVKGRFTISRDNAKNTVYLQMNSLKPEDSAVYYFAKQVRYYGYKYNYWGLGTQVTVSS”, the “polyreactivity (PSR sort gate)” value is “high polyreactivity”.

As to “QVQLVESGGGLVQAGVSLRLSCAASGRTFFLYAMGWYRQAPGKERELVARISTSGGGTYYADSVKGRFTISRDNAKYTVYLQMNSLKPEDTAVYYCAARTFRGQRRAGGYDYWGQGTQVTVSS”, the “polyreactivity (PSR sort gate)” value is “high polyreactivity”.

For the sequence “QVQLVESGGGLVQAGVSLRLSCAASGRTFRHNVMGRYRQAPGKERELVAAISYSGGSTHYADSVKGRFTISRDNAKNTVYLQMNSQKPEDTAVYYCNRYSYDSHFLYPFRGHDYWGQGTQVTVSS”, the “polyreactivity (PSR sort gate)” value was “low polyreactivity”.

For “QVQLVESGGGLVQAGVSLRLSCAASGRTFRRYVMGWNRQAPGKERELVASITRGTGTDYADSVKGRFTISRDNRMNTVYLQMNSLKPEDTAVYYGNVKFGQPIYGEFDYWGQGTQVTVSS”, the “polyreactivity (PSR sort gate)” value is listed as “low polyreactivity”.

As for “QVQLVESGGGLVQAGVSLRLSCAASGRTFYGNAMGWYRQAPGKERELVAAISRSGGRTYYADSVKGRFTISRDNAKNTVYLQMNSLKPEDTAVYYCAKDYYYPSHTYGYWGQGTQVTVSS”, the “polyreactivity (PSR sort gate)” value is “high polyreactivity”.

On to “QVQLVESGGGLVQAGVSLRLSCAASGSIFGFNAMGWYRQAPGKEWELVAAINNGGSTNYADSVKGRFTISRDNAKNTVYLQMNSLKPEDTAVYYFAAERWFYRSKFDYWGQGTQVTVSS”, for which the “polyreactivity (PSR sort gate)” value was “high polyreactivity”.

With “QVQLVESGGGLVQAGVSLRLSCAASGSTFRKYTMGWSRQAPGKERELVAAITYRGDRTYYADSVKGRFTISRDNAKNTVFIQMNSLIPEDTAVYYCASTSYYGAVWYIFYYWGQGTQVTVSS”, the “polyreactivity (PSR sort gate)” value is recorded as “high polyreactivity”.

As to “QVQLVESGGGLVQAGVSLRLSCAASGSTFRRYAMGWYRQAPGKAWEISTSDGSTYYADSVKGRFTISRDNAKNTVYLQMNSLKPEDTAVYYCAADGYRQLIEDITDDYWGQGTQVTVSS”, the “polyreactivity (PSR sort gate)” value is “low polyreactivity”.

Regarding “QVQLVESGGGLVQAGVSLRLSCASSGIIFPDYAMGWYRQAPGKERELVAAITRSGGRTFYADSVKGRFTISRDTAKNSVYLQMKSLKPEDTAVYYCAVSYSYLYYYWGQGTQVTVSS”, the “polyreactivity (PSR sort gate)” value is “high polyreactivity”.

On to “QVQLVESGGGLVQAGVSLRLSCPAGGSTFYKYVMGWYRQAPGKEREVVAAISVNGGDTYYADSVKGRFTISRDNAKNTVSVQMNSLNPEDTAVYYCAAERGVDLSARYGDNDNWGQGTQVTVTS”, for which the “polyreactivity (PSR sort gate)” value is “low polyreactivity”.

With “QVQLVESGGGLVQAGVSLRLSCSASGLTFRPNAIGWYRQAPGKERELVAAITWSGGRTYYADSVKGRFTISRDNATNTVYFQMNSLKPEDTAVYYCAAVPLRNRWPNSWPALDYWGQVTQVTVSS”, the “polyreactivity (PSR sort gate)” value is given as “high polyreactivity”.

On to “QVQLVESGGGLVQALGSLRLSCAASGSIFQRNALGWYRLAPGKERELVAAISRSGGSTYYADSVKGRFTISRDNAKNTVYCQMNSLQPEDTAVYYCAAVHFFWGYDYWGQGTQVTVSS”, for which the “polyreactivity (PSR sort gate)” value is given as “high polyreactivity”.

Take “QVQLVESGGGLVQARCSLRLSCDASGSIFPHYAMGWYRQAPGKEREFVATISGSTGRTYYADSVKGRFTISRDYAKNTVYLQMNSLKTEDTAVYYCATSVGYYLPPIKYDYWGQGTQVTVSS”: the “polyreactivity (PSR sort gate)” value is “low polyreactivity”.

Turning to “QVQLVESGGGLVQARGRLRLSFAASGSIFSTNAMGWYRQATGKERELVAAISSSDGITYYADSVKGRFTISRDNAMNTVYLQMNSLKPEDTAVYYCAAEYAYGIEESSAYNIYFYWGQGTQVTVSS”, the “polyreactivity (PSR sort gate)” value is “high polyreactivity”.

On to “QVQLVESGGGLVQARGSHRLSCAASGRTFVTNAMGWYRQAPGKERELVAAIRWSSDSTYYADSVKGRFTISRVIAKNTVYLQMNSLKPEYTAVYYCAARIPKQQGYGYWGQGTQVTVSS”, for which the “polyreactivity (PSR sort gate)” value is on record as “high polyreactivity”.

Consider “QVQLVESGGGLVQARGSLRLICAASGRIFPDYGMGWYRQAPGKESEFDAVIDWIGVSTYYADSVKGRFTISRDNAKNTVYLQINSLKPEDTAVYYCNAEYAFPSPKSSLDYWGQGTQVTVSS”, for which the “polyreactivity (PSR sort gate)” value is “low polyreactivity”.

As to “QVQLVESGGGLVQARGSLRLSCAACGSTFYWYPLGWSRQAPGTERELVATLTSVGRTNYADSVKGRFTISRDNAKNSVYLQMNRLNPEDTAVYYCAASKARWPRGGSRGGMGYWGQGTQVTVSS”, the “polyreactivity (PSR sort gate)” value is listed as “high polyreactivity”.

As to “QVQLVESGGGLVQARGSLRLSCAASAFIIPVYTIGWYRQAPGKERELVAAITQIGGSTHYADSVKGRFTISRANAKNTVYLQMNSLKPEDTAVYYCAVDYDSYWYGTYVNEYDYWGLGTQVTVSS”, the “polyreactivity (PSR sort gate)” value is on record as “low polyreactivity”.

With “QVQLVESGGGLVQARGSLRLSCAASGFTFERYTMGWYRQAPGKERELVATISRRSGRTSYADSVKGRFTISRDNEMNSVYLQMNSLKPEDTAVYYCAVDDAYPDRYDYWGQGPQVTVSS”, the “polyreactivity (PSR sort gate)” value was “high polyreactivity”.

For “QVQLVESGGGLVQARGSLRLSCAASGIIFLVNDMGWYRQAPGKVRELVAAITYSGDGTFYADSVKGRFTISRDNAKNTVYLQMNSLKPEDTAVYYCAADLPESPESYYHTDDYWGQGTQGTVSS”, the “polyreactivity (PSR sort gate)” value was “low polyreactivity”.

For “QVQLVESGGGLVQARGSLRLSCAASGITFNRYVMGWYRQAPGKERELVAAISRTGGSTYYADSVKGRFTISRDNAKNTDFLQMNSLKPEDTAVYYCAAATSPGIYDYWGQGTQVTVSS”, the “polyreactivity (PSR sort gate)” value is “high polyreactivity”.

On to “QVQLVESGGGLVQARGSLRLSCAASGITFSRNVMGWYRQAPGKERELVAAISRSGGRTYYADSVKGRFTISRDNAKNTVYLQMNSLKPEVTAVYYCNRDIGGTTVLDDYCGQGTQVTVSS”, for which the “polyreactivity (PSR sort gate)” value is given as “low polyreactivity”.

Take “QVQLVESGGGLVQARGSLRLSCAASGRIFRKYDMGWYRQAPGKERELVAAISGTGITYYADSVKGRFTISRDNAKNTVYLQMNSMKPEDTAVYYCARGSKPRAWSWAYPSDTSIYDYWGQGTQVTVSS”: the “polyreactivity (PSR sort gate)” value is on record as “low polyreactivity”.

As to “QVQLVESGGGLVQARGSLRLSCAASGRIFWSNAMGWYRQAPGKERELVAAISYSGDSTYYADSVKGRFTISRDNAKNTVYIQMKSLKPEDTAVYYCTAVGHRSYRYDYWGQGTQVTVSS”, the “polyreactivity (PSR sort gate)” value was “high polyreactivity”.

Regarding “QVQLVESGGGLVQARGSLRLSCAASGRTFGPYAMGWYRQAPGKERELVAAISSSEGSTYYADSVKGRFTISRDIAKYSVYLQMNSMKPEDTAVYYCNARYYLWSTTRWYGYDYWGQGTQVTVSS”, the “polyreactivity (PSR sort gate)” value is “high polyreactivity”.

The values are drawn from the nanobody polyreactivity screen of Harvey et al. (2022).
